Numbering of substitutions follows the chain as printed.
T1: cofactor factor Va of the prothrombinase complex (endogenous, in human plasma), P12259
T1 chain 1: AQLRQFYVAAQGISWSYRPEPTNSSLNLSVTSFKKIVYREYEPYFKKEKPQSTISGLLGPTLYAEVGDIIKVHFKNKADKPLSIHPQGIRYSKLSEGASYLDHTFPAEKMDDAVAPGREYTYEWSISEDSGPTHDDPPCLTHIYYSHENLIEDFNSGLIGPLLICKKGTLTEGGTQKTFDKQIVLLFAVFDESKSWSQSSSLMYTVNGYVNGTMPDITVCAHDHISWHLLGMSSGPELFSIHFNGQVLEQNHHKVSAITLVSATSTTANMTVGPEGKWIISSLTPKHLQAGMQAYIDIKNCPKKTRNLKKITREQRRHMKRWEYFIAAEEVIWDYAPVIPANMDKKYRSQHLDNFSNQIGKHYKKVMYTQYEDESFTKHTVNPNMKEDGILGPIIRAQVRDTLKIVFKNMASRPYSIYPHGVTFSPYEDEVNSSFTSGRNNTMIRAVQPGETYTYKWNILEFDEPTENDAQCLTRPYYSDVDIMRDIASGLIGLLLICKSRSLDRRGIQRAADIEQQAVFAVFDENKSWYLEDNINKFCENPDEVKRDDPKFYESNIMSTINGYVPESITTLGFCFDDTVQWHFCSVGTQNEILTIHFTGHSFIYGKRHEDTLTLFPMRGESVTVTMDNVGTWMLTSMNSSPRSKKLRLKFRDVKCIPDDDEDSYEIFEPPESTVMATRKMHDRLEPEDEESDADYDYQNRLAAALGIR
T1 chain 2: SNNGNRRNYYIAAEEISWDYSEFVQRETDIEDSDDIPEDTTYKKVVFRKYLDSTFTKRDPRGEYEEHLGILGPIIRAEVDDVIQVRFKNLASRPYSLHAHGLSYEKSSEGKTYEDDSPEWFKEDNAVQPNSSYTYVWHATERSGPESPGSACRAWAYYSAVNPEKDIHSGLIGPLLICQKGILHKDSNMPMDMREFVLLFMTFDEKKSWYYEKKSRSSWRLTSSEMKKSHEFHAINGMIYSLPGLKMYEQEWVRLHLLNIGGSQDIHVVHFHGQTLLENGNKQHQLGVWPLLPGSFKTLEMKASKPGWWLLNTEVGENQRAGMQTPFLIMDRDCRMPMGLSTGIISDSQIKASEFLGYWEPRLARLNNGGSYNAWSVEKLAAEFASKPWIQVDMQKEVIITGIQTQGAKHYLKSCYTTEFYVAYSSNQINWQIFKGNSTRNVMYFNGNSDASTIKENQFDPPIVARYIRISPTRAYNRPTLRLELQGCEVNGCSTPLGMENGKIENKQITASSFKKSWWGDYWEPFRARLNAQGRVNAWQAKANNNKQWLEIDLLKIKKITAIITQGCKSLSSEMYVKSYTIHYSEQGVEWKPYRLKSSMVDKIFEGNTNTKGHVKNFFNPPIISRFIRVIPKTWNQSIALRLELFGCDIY

B1: EGR-Xa, active site inhibited full length human fXa (human plasma derived) (protein)
chain 1: ANSFLEEMKKGHLERECMEETCSYEEAREVFEDSDKTNEFWNKYKDGDQCETSPCQNQGKCKDGLGEYTCTCLEGFEGKNCELFTRKLCSLDNGDCDQFCHEEQNSVVCSCARGYTLADNGKACIPTGPYPCGKQTLER
chain 2: IVGGQECKDGECPWQALLINEENEGFCGGTILSEFYILTAAHCLYQAKRFKVRVGDRNTEQEEGGEAVHEVEVVIKHNRFTKETYDFDIAVLRLKTPITFRMNVAPACLPERDWAESTLMTQKTGIVSGFGRTHEKGRQSTRLKMLEVPYVDRNSCKLSSSFIITQNMFCAGYDTKQEDACQGDSGGPHVTRFKDTYFVTGIVSWGEGCARKGKYGIYTKVTAFLKWIDRSMKTRGLPKAKSHAPEVITSSPLK
B2: r-Antidote (processed two-chain polypeptide, human factor Xa triple mutant after removal of the -RKRRKR- linker) (other)
chain 1: ANSFLFWNKYKDGDQCETSPCQNQGKCKDGLGEYTCTCLEGFEGKNCELFTRKLCSLDNGDCDQFCHEEQNSVVCSCARGYTLADNGKACIPTGPYPCGKQTLER
chain 2: B1 chain 2 with S185A

Tests used:
[1] = target: T1, cofactor factor Va of the …
[2] = target: ATIII-fondaparinux complex (human antithrombin III with fondaparinux bound) (human, UniProt P01008 33-464, non-covalently bound fondaparinux (synthetic pentasaccharide)); assay: cell-based or functional assay
Sequence of ATIII-fondaparinux complex (human antithrombin III with fondaparinux bound) (P01008 33-464 limits assumed, one chain of several): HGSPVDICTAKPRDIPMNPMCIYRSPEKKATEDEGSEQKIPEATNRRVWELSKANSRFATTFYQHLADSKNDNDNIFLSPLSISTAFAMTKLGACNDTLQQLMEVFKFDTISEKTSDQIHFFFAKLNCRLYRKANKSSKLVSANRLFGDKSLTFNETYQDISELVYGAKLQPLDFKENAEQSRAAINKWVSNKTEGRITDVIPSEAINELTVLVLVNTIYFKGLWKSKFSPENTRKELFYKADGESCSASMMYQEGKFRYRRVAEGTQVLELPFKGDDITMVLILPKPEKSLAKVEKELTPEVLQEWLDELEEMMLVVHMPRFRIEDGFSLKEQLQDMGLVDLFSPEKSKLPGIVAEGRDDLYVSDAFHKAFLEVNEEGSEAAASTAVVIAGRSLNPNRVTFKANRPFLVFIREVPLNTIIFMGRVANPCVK

Binder	IIa formation (RFU) in tissue factor-initiated thrombin generation in human plasma against EGR-Xa concentration [1]	IC50 (read off the curve): r-Antidote concentration that halves kiapp of fXa inhibition by the ATIII-fondaparinux complex [2] [µM]
B1	circles: falls steeply from about 380,000 RFU at 0 nM to about 180,000 and about 85,000 RFU at the next points, below 50,000 RFU by about 100 nM and about 10,000 RFU at about 500 nM	
B2		~0.1

— US20180185459A1 (PORTOLA PHARMACEUTICALS, published 2018)
